Measured values as given in US20260070974A1 (NONA BIOSCIENCES SUZHOU, published 2026).

T1: human Siglec-10-his protein (Acrobiosystems, Cat SIO-H52H9) (human, UniProt Q96LC7 17-546, limits assumed)
T1 construct: Bought protein; not shown: his tag
T1 sequence (looked up): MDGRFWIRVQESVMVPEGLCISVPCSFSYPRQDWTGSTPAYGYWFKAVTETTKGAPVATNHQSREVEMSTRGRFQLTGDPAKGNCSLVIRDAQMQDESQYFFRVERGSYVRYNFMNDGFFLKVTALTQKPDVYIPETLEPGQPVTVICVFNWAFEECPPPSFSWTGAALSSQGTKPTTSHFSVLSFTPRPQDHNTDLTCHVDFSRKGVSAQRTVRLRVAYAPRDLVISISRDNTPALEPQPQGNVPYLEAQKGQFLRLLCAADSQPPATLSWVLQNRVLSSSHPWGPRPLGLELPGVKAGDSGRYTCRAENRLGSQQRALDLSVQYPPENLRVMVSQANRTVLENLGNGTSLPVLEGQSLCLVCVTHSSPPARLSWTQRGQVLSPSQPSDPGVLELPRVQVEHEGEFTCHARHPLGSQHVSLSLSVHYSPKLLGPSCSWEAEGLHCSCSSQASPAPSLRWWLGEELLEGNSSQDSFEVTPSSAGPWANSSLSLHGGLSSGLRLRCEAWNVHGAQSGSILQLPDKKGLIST


What was measured:
[1] = target: T2, human Siglec-3-his protein (Acrobiosystems, Cat CD3-H5226) (human, UniProt P20138 18-259); assay: ELISA on coated human Siglec-3-his, antibody at 100 nM and 10 nM, goat anti-human IgG-HRP, OD450
T2 construct: Bought protein; not shown: his tag
T2 sequence (P20138 18-259 limits assumed): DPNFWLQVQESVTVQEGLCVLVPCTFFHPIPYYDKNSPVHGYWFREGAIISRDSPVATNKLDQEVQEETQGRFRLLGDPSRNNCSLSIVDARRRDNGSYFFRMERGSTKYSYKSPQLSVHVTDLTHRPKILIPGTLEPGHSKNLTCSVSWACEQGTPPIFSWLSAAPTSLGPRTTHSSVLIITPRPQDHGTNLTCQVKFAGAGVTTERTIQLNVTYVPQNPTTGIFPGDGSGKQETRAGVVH
Experimental: (§1) Human Siglec-15 ECD-his protein (Acrobiosystems, Cat SG5-H52H3), human Siglec-2-his protein (Acrobiosystems, Cat CD2-H52H8), human Siglec-4a-his protein (Acrobiosystems, Cat MAG-H52H8), human Siglec-3-his protein (Acrobiosystems, Cat CD3-H5226), human Siglec-10-his protein (Acrobiosystems, Cat SIO-H52H9), and human PD-L1/B7-H1-his protein (Acrobiosystems, Cat PD1-H5229), each at 1 μg/mL and dissolved in PBS, were each added to an ELISA plate at 100 μL/well for coating and the plate was incubated overnight at 4° C. The ELISA plate was then blocked with PBST (PBS+0.05% Tween 20) containing 2% BSA at 200 μL/well and incubated at 37° C. for 1 h. The ELISA plate was washed 4 times with PBST. The anti-Siglec-15 antibody diluted in a gradient (concentrations: 100 nM and 10 nM) was added to the ELISA plate at 100 μL/well and the plate was incubated at 37° C. for 1 h. The ELISA plate was washed 4 times with PBST. The goat anti-human IgG (H+L)-HRP (1:5000, Jackson, Cat 109-035-088) was added at 100 μL/well and the plate was incubated at 37° C. for 1 h. The ELISA plate was washed 4 times with PBST. The TMB substrate (Biopanda, Cat TMB-S-003) was added at 100 μL/well, and the plate was incubated at room temperature for 5 min, and then the stop buffer (Solarbio, Cat #: C1058) was added at 100 μL/well to stop the reaction.

[2] = target: T1, human Siglec-10-his protein …; assay: ELISA on coated human Siglec-10-his, antibody at 100 nM and 10 nM, goat anti-human IgG-HRP, OD450
Experimental: as §1

Row | binding result [1] | binding result [2] | Binder
1 | no binding (tested: 100 nM) | no binding (tested: 100 nM) | PR301285 (antibody, human IgG1, kappa, V domains shown) VH: QVQLQESGPGLVKPSETLSLTCTVSGGSMISYYWSWLRQPPGKGLEWIGYIYYSGNTNYNPSLKSRITIAVDTSKNQFSLKLNSVTAADTAVYYCARERELHPYYFDYWGQGTLVTVSS VL: DIQLTQSPSFLSASVGDRVTITCRASQGIDNYLAWYQQKPGKAPKVLIYAASTLQSGVPSRFSGSGSGTEFTLTISSLQPEDFATYYCQQLNSYPLTFGGGTKVEIKR
2 | no binding (tested: 100 nM) | no binding (tested: 100 nM) | PR301286 (antibody, human IgG1, kappa, V domains shown, Parent of the PTM variants PR301286-1, -3, -5, -6, -7) VH: QVQLVESGGGVVQPGKSLRLSCAASGFTFSSYGMHWVRQAPGKGLEWVAVIWIDGSNRYYAASVKGRFTISRDNSKNTLYLQMNSLRAEDTAVYYCTRGYGDYAYVMDVWGQGASVTVSS VL: DIVMTQSPLSLPVTPGEPASISCRSSQSLLPGNGYNYLDWYLQKPGQSPQLLIYLGSNRASGVPDRFSGSGSGTDFTLKISRVEAEDVGIYYCMQALQSPLTFGGGTKVEIKR

Further lines, the binder ahead of its results:

Row | Binder | binding result [1] | binding result [2]
3 | PR301289 (antibody, human IgG1, kappa, V domains shown, Parent of the PTM variants PR301289-1 and -2) VH: QVQLVQSGAEVKKPGASVKVSCRASGYTFTSYDINWVRQATGQGLEWMGWMNPHSGDTGYAQNFQGRVTMTWNTSISTAYMELSSLRSEDTAVYYCARRRVGVYYYGMDVWGQGTTVTVSS VL: ENVLTQSPGTLSLSPGERATLSCRASQSVSSSYFGWYQQKPGQAPRLLIYGASSRATGIPDRFSGSGSGTDFTLTISRLEPEDFAVYYCQQYGSSPITFGQGTRLEIKR | no binding (tested: 100 nM) | no binding (tested: 100 nM)
4 | PR300066 (Tab) (antibody, human IgG1, kappa, V domains shown, variable region from clone 5G12 of WO 2018/057735A1, on human IgG1/kappa constant regions; also called 5G12) VH: QVQLQQPGAELVKPGASVKMSCKASGYTFTSYWITWVIQRPGQGLEWIGDIYCGSDTMHYNEKFKNKATLTVDTSSSTAYMQLSSLTSEDSAVYYCARWWDYGSSYDYFDYWGQGTTLTVSS VL: DIKMTQSPSSMYASLGERVTITCKASQDINSYLSWFQQKPGKSPKTLIYRANRLVDGVPSRFSGSGSGQDYSLTISSLEYEDMGIYYCLQYDEFPYTFGGGTKLEIKR | no binding (tested: 100 nM) | no binding (tested: 100 nM)
